Drawing on PMC5736207, this text covers Km for 3 proteins.

Substrate in data set [1]: O=P(O)(O)O[C@H]1O[C@H](CO)[C@@H](O)[C@H](O)[C@@H]1O
Nature of the data set: purified protein. The data set is classed as biochemical, Homo sapiens. As to conditions: pH 7.5, 32°C.

Substrate in data set [2]: O=P(O)(O)O[C@H]1O[C@H](CO)[C@@H](O)[C@H](O)[C@H]1O
Nature of the data set: purified protein. Type of data set: biochemical, Homo sapiens. As to conditions: 27 μM Glc-1,6-P2, MgCl2 5 mM, pH 7.5, 32°C.

B1: PMM2 (phosphomannomutase2) (Homo sapiens) (protein)
chain: AAPGPALCLFDVDGTLTAPRQKITKEMDDFLQKLRQKIKIGVVGGSDFEKVQEQLGNDVVEKYDYVFPENGLVAYKDGKLLCRQNIQSHLGEALIQDLINYCLSYIAKIKLPKKRGTFIEFRNGMLNVSPIGRSCSQEERIEFYELDKKENIRQKFVADLRKEFAGKGLTFSIGGQISFDVFPDGWDKRYCLRHVENDGYKTIYFFGDKTMPGGNDHEIFTDPRTMGYSVTAPEDTRRICELLFS
notes: recombinant, E. coli BL21(DE3), purified as in earlier work; no tag mentioned
What is called Km is the concentration of substrate that gives half-maximal velocity. In the case of B1, the Km in the data set “purified protein [1]” (3 μM Man-1,6-P2, MgCl2 5 mM) stood at 23.7 ± 4.5 µM.

B2: PMM1 (phosphomannomutase1) (Homo sapiens; E219K/M186Q/N218D) (protein)
chain: AVTAQAARRKERVLCLFDVDGTLTPARQKIDPEVAAFLQKLRSRVQIGVVGGSDYCKIAEQLGDGDEVIEKFDYVFAENGTVQYKHGRLLSKQTIQNHLGEELLQDLINFCLSYMALLRLPKKRGTFIEFRNGMLNISPIGRSCTLEERIEFSELDKKEKIREKFVEALKTEFAGKGLRFSRGGQISFDVFPEGWDKRYCLDSLDQDSFDTIHFFGDKTSPGGNDFEIFADPRTVGHSVVSPQDTVQRCREIFFPETAHEA
notes: recombinant, E. coli BL21(DE3), purified as in earlier work (DEAE, butyl Sepharose); dimer; no tag mentioned
For the protein B2, the Km in the data set “purified protein [1]” (10 μM Man-1,6-P2, MgCl2 5 mM) stood at 1.6 ± 0.4 µM; in the data set “purified protein [2]”, 3.5 ± 1.3 µM.

B3: PMM1 (phosphomannomutase1) (Homo sapiens) (protein)
chain: AVTAQAARRKERVLCLFDVDGTLTPARQKIDPEVAAFLQKLRSRVQIGVVGGSDYCKIAEQLGDGDEVIEKFDYVFAENGTVQYKHGRLLSKQTIQNHLGEELLQDLINFCLSYMALLRLPKKRGTFIEFRNGMLNISPIGRSCTLEERIEFSELDKKEKIREKFVEALKTEFAGKGLRFSRGGMISFDVFPEGWDKRYCLDSLDQDSFDTIHFFGNETSPGGNDFEIFADPRTVGHSVVSPQDTVQRCREIFFPETAHEA
notes: as for B2
On to B3, for which the Km in the data set “purified protein [1]” (10 μM Man-1,6-P2, MgCl2 5 mM) is 6.5 ± 1.3 µM; in the data set “purified protein [2]”, 7.3 ± 1.7 µM.
